Legend:
[1] = test system: cells transformed with patient-derived FGFR2 having ECD activating deletion mutations; assay: patient-derived FGFR2 ECD mutation driven cell growth (FIG. 4F); assay type: cell-based; details: fold change from nonspecific IgG control
Text: FIGS. 4A-4F present schematic diagrams, blots, images, tables and graphs showing that the FGFR2 extracellular domain is important for FGFR2 fusion driven cell growth and transformation and that patient-derived FGFR2 extracellular domain mutations increased transformation capacity. As also shown, some parental antibodies were effective in inhibiting ECD mutation driven cell growth. FIG. 4A is a graph showing that FGFR2-BICC1, FGFR2-AHCYL1, and FGFR2-PHGDH fusions grow faster compared to controls and respond to FGF ligands. The FGFR2 extracellular domain (ECD) contributes to the growth of transformed NIH3T3 cells expressing FGFR2 fusions. […] In addition, the ability of the antibodies described herein to inhibit the growth of the cells that overexpressed the ECD mutant FGFR2 fusions was assessed. […]
Expression of FGFR2-BICC1, FGFR2-AHCYL1, and FGFR2-PHGDH in NIH3T3 cells induced increased proliferation. […] By way of example, antibodies C, D, and E were effective in blocking the growth of cells having a patient-derived FGFR2 ECD activating mutation, as determined by assessing fold-increase or decrease from a nonspecific Ab (IgG) control (FIG. 4F); therefore, combinations of the binding regions of these antibodies in biparatopic antibodies may likely result in a synergistic blocking effect.

[2] = target: FGFR2b alpha IIIb antigen (UniProt P21802); assay: SPR (Biacore), antibody on chip, FGFR2b alpha IIIb antigen

Kd [2]: 0.99 nM
B1: 2B 1.3.12 (antibody, V domains shown)
VH: EVQLVESGGGLVQPGGSLRLSCAASGFPFTSTGISWVRQAPGKGLEWVGRTHLGDGSTNYADSVKGRFTISADTSKNTAYLQMNSLRAEDTAVYYCARTYGIYDTYDMYTEYVMDYWGQGTLVTVSS
VL: DIQMTQSPSSLSASVGDRVTITCRASQDVDTSLAWYKQKPGKAPKLLIYSASFLYSGVPSRFSGSGSGTDFTLTISSLQPEDFATYYCQQSTGHPQTFGQGTKVEIK
notes: the duobody scheme implies IgG1 with K409R or F405L; also called Antibody D; GE
blocking growth of cells having a patient-derived FGFR2 ECD activating mutation [1]: effective
